Test results published in the supplement of paper PMC10724198.
± gives the standard deviation of the averaged measurements.

tested on: Saccharomyces cerevisiae; assay: protein stability index of tFT-peptide fusion (C-terminal peptide) (PSI (0-1 scale)); higher = more stable (slower turnover); conditions: genetic background: wild type; temperature: 30 C
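Further: PSI is a weighted mean of sequencing reads over stability bins, variants kept only with over 10 reads, mCherry proximal and sfGFP distal, peptide attached via GGGS linker.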

Row | Sequence | protein stability index
1 | QTDHINKTTAKI | 0.684 ± 0.021
2 | QTGQVSRVSPHD | 0.672 ± 0.031
3 | QTHRFLHVGKSL | 0.621 ± 0.043
4 | QTLNTKEKREKE | 0.727 ± 0.025
5 | QTYNKRKGAIRA | 0.616 ± 0.016
6 | QVLFTPLLNVTK | 0.754 ± 0.05
7 | QVTLPHSSLLGW | 0.6749 ± 0.0028
8 | QVWLEKDPQETA | 0.691 ± 0.016
9 | QYFRKRVLKELP | 0.671 ± 0.074
10 | QYGVSIRRDSRP | 0.642 ± 0.035
11 | RADAPPPTRPEA | 0.744 ± 0.011
12 | RAGSLRFRVILY | 0.635 ± 0.026
13 | RAHWGEFGYSLF | 0.716 ± 0.018
14 | RAILTVVRGHLE | 0.668 ± 0.0086
15 | RAITPRHKRLVG | 0.6934 ± 0.0031
16 | RAKCELVHGLRT | 0.65 ± 0.026
17 | RAKGGFDPKCYS | 0.749 ± 0.076
18 | RAKSTFRVHSHM | 0.6645 ± 0.005
19 | RAKVEQTGQKTV | 0.707 ± 0.011
20 | RALLSPFYRFYV | 0.5956 ± 0.003
21 | RALNRVWLSRRV | 0.607 ± 0.02
22 | RALSLLSLLLNR | 0.696 ± 0.022
23 | RAMLWGPCYRGI | 0.656 ± 0.021

Row | Sequence | protein stability index
24 | RAPFLSRACCSR | 0.648 ± 0.013
25 | RAPPPPARPALP | 0.687 ± 0.028
26 | RARAIGVGAGRG | 0.691 ± 0.019
27 | RARPGRACPGAP | 0.755 ± 0.0097
28 | RARVGGRQLRRV | 0.753 ± 0.15
29 | RARVVRRWDTCG | 0.697 ± 0.086
30 | RASTRGIMISKS | 0.706 ± 0.034
31 | RATLGVSGRCWV | 0.6802 ± 0.001
32 | RAVHSSPHVSLS | 0.681 ± 0.013
33 | RAVKLHIIIFDG | 0.551 ± 0.025
34 | RAVSGSLSFLLR | 0.721 ± 0.014
35 | RAWELPRLRGRD | 0.743 ± 0.076
36 | RAWHFWVCGWRV | 0.607 ± 0.041
37 | RCAGCFDSAFSW | 0.746 ± 0.012
38 | RCFSLFYIYCPA | 0.525 ± 0.0065
39 | RCGVAGVVCGSG | 0.615 ± 0.039
40 | RCKCGDALTVIH | 0.691 ± 0.016
41 | RCLGDLLARQTP | 0.635 ± 0.012
42 | RCLRALGLFARS | 0.719 ± 0.008
43 | RCLSISTSLCKV | 0.744 ± 0.052
44 | RCPQHCDLSVYV | 0.681 ± 0.021
45 | RCSAPWFSPYPP | 0.645 ± 0.073
46 | RCSLGWKRFDWR | 0.706 ± 0.061

Row | Sequence | protein stability index
47 | RCTNSLPSYLSH | 0.675 ± 0.039
48 | RDCPVTPGTLFS | 0.744 ± 0.084
49 | RDGGSTDGGKRR | 0.697 ± 0.024
50 | RDNKIKEGKKKK | 0.682 ± 0.1
51 | RDSERTSGAMLS | 0.689 ± 0.031
52 | REGRRSVWGVSW | 0.685 ± 0.023
53 | REHLSERVPSRA | 0.749 ± 0.057
54 | REKLINEKRIRR | 0.704 ± 0.012
55 | RELGAWSFITSV | 0.705 ± 0.014
56 | RESIEGGGAPRD | 0.747 ± 0.11
57 | REVRRNINKRRE | 0.67 ± 0.11
58 | REVYLFSSSCRG | 0.623 ± 0.027
59 | REWDRRGRSHHF | 0.769 ± 0.069
60 | REWVAGGGVVGV | 0.679 ± 0.031
61 | RFFSGPCCGRSP | 0.6995 ± 0.002
62 | RFGDWALGARVG | 0.72 ± 0.032
63 | RFGGGPCRSVGC | 0.7331 ± 0.0059
64 | RFGRGAGWGLGG | 0.66 ± 0.0092
65 | RFLLNPPLRCPP | 0.747 ± 0.041
66 | RFPLTPSPLRAT | 0.6948 ± 0.0039
67 | RFPRFVVPTRTR | 0.852 ± 0.058
68 | RFRVKSYLYFCP | 0.614 ± 0.03
69 | RFSDGSHLFGDR | 0.524 ± 0.14

Row | Sequence | protein stability index
70 | RFSTRAVRLGPC | 0.705 ± 0.19
71 | RFTNHPTRQTTG | 0.676 ± 0.088
72 | RFVCVSVCPVRV | 0.487 ± 0.065
73 | RFWFWWVVRDGS | 0.617 ± 0.08
74 | RGCAPDRIPAPV | 0.645 ± 0.023
75 | RGEERGGTRPAG | 0.6788 ± 0.0037
76 | RGEPPSAKEIAR | 0.727 ± 0.045
77 | RGEVSGRVGRVG | 0.684 ± 0.058
78 | RGFRPLGSGILI | 0.689 ± 0.051
79 | RGGDGGGLRTRD | 0.688 ± 0.037
80 | RGGEGTQRRKLR | 0.717 ± 0.077
81 | RGGGAARGGGVG | 0.658 ± 0.009
82 | RGGGGGGQVAVG | 0.711 ± 0.049
83 | RGGGGGRKVSVG | 0.658 ± 0.062
84 | RGGGRGGSRTGA | 0.712 ± 0.033
85 | RGGNVDSRKMNR | 0.722 ± 0.018
86 | RGGPQARRLRPY | 0.706 ± 0.063
87 | RGGVGRLEGCRG | 0.684 ± 0.066
88 | RGGWRGVWGHVV | 0.599 ± 0.033
89 | RGKTIQGNADPK | 0.672 ± 0.032
90 | RGLYQCFLLDIV | 0.472 ± 0.047
91 | RGMVPREKHQNS | 0.683 ± 0.013
92 | RGPARFYVRVSV | 0.498 ± 0.0077

Row | Sequence | protein stability index
93 | RGPFSGKCEPSM | 0.663 ± 0.049
94 | RGPGAWFVSWWA | 0.7886 ± 0.0029
95 | RGPGMVRAFAEA | 0.679 ± 0.011
96 | RGQTSLTGERNK | 0.701 ± 0.055
97 | RGRCGRLSRAGA | 0.727 ± 0.041
98 | RGRGKRNDPEKR | 0.681 ± 0.036
99 | RGRGSLPGFKSL | 0.654 ± 0.058
100 | RGRTLVVPAPDT | 0.673 ± 0.017
101 | RGSFGAWTVGGQ | 0.59 ± 0.026
102 | RGSIKSYNTRKT | 0.728 ± 0.009
103 | RGTYRYNFSQKK | 0.652 ± 0.12
104 | RGVDVWQGRTVP | 0.6879 ± 0.0031
105 | RGVGGRALGVGR | 0.678 ± 0.038
106 | RGVGGRGIGFPR | 0.6826 ± 0.0058
107 | RGVPWVVFSVGA | 0.542 ± 0.015
108 | RGWGVLCGGGWG | 0.556 ± 0.053
109 | RHDSYKSLHSNL | 0.743 ± 0.05
110 | RHFFRYYLDHPS | 0.617 ± 0.035
111 | RHGDGGRGRVDG | 0.736 ± 0.1
112 | RHIKIADYKTLT | 0.686 ± 0.04
113 | RHILPNKCRLHH | 0.714 ± 0.2
114 | RHKVVLQPRPQV | 0.649 ± 0.039
115 | RHPPVPCIAQIR | 0.658 ± 0.024

Row | Sequence | protein stability index
116 | RHPTITAPTPTP | 0.748 ± 0.063
117 | RHRLTPLTQYPS | 0.677 ± 0.062
118 | RIGDVIRIAEIK | 0.729 ± 0.069
119 | RIIRPRSTKDHP | 0.745 ± 0.14
120 | RIKKKKKIKRNN | 0.7 ± 0.02
121 | RILLSPLSQSQP | 0.695 ± 0.025
122 | RIPLYAFLPPID | 0.745 ± 0.066
123 | RIPTALLAPYAQ | 0.649 ± 0.03
124 | RKAPLPDRGIPW | 0.708 ± 0.017
125 | RKCDKVGCDEKA | 0.66 ± 0.02
126 | RKEEKKEGKGTR | 0.663 ± 0.062
127 | RKEESKKEKNKI | 0.65 ± 0.11
128 | RKEKRKRRGEAN | 0.662 ± 0.061
129 | RKGDRAQRWRDL | 0.655 ± 0.12
130 | RKIRKKRERKGE | 0.714 ± 0.2
131 | RKKGKLESKKQK | 0.742 ± 0.12
132 | RKKINKRLCLGN | 0.692 ± 0.033
133 | RKKQYEKKSEKP | 0.689 ± 0.11
134 | RKLYMCMRTKGD | 0.673 ± 0.046
135 | RKNDSKKNCVKE | 0.705 ± 0.089
136 | RKPTSFFSRIVN | 0.611 ± 0.026
137 | RKRPTQAMIFNI | 0.5568 ± 0.0013
138 | RKSERIKNKNGR | 0.715 ± 0.037

Row | Sequence | protein stability index
139 | RKSKRLDQSCTR | 0.703 ± 0.035
140 | RKTGTGETRTRR | 0.691 ± 0.015
141 | RKVKGKKRYTEG | 0.662 ± 0.058
142 | RKYKNKRSKKEK | 0.755 ± 0.1
143 | RLCLFPVAPLLS | 0.599 ± 0.03
144 | RLCLLVVPLLPP | 0.665 ± 0.055
145 | RLCPWNLSDADL | 0.71 ± 0.0091
146 | RLDRGLHIKAIT | 0.704 ± 0.014
147 | RLDVGAGGCLGG | 0.716 ± 0.021
148 | RLFIALFPPFYL | 0.64 ± 0.05
149 | RLGAEYNWVNLS | 0.6362 ± 0.0026
150 | RLGALNHPLAAP | 0.7183 ± 0.0057
151 | RLGARGGSRGRP | 0.736 ± 0.012
152 | RLGFCGLGHRCE | 0.677 ± 0.033
153 | RLGLRWSPHSSP | 0.707 ± 0.01
154 | RLGLSIASAPCL | 0.693 ± 0.062
155 | RLIEDREWLGSR | 0.721 ± 0.014
156 | RLIIRYESYTSD | 0.709 ± 0.013
157 | RLLFLPPPPPPP | 0.654 ± 0.082
158 | RLLLPSTLLPPR | 0.761 ± 0.13
159 | RLLLSRCSFLPT | 0.663 ± 0.03
160 | RLLPLPRRTPPL | 0.852 ± 0.11
